Data as given in patent publication US20250295803A1, “5T4 ANTIBODY-DRUG CONJUGATES AND USES THEREOF” (EXELIXIS, INC., priority 2022, published 2025).

T1: human 5T4 (Homo sapiens, UniProt Q13641)
T1 sequence (Q13641 32-355 limits assumed): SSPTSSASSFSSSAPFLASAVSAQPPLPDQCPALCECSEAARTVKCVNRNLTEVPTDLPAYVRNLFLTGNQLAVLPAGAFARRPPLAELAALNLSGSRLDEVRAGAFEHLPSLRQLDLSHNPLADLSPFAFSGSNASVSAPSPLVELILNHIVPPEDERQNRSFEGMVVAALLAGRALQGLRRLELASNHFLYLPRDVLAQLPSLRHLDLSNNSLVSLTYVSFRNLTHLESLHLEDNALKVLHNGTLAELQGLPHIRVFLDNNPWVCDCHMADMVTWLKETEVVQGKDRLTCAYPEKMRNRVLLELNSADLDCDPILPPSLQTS

T2: unconjugated human TPBG/5T4 protein with a c-terminal polyhistidine and Avi tag (AcroBiosystems Cat. No. … (human, UniProt Q13641 32-355))
T2 construct: Bought protein; also called Acro TPGH52E5; Acro Catalog No. TPGH52E; not shown: C-terminal polyhistidine and Avi tag
T2 sequence: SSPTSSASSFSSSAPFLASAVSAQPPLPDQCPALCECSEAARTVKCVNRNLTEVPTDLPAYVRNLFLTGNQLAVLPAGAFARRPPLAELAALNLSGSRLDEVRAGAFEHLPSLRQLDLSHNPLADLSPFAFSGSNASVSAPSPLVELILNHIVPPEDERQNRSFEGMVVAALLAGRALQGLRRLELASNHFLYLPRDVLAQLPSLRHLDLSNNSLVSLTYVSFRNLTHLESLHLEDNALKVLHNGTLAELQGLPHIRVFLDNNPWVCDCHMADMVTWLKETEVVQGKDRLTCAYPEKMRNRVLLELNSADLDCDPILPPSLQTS

B1: mAbA4: 5T4 antibody comprising VH of SEQ ID NO:25 and VL of SEQ ID NO:26 (antibody, V domains shown)
VH: EVQLVESGGGLVQPGGSLRLSCAASGFTFSRYYIHWVRQAPGKGLEWVAFISPGGSYTYYADSVKGRFTISADTSKNTAYLQMNSLRAEDTAVYYCAREYYSMGVLDYWGQGTLVTVSS
VL: DIQMTQSPSSLSASVGDRVTITCRASQSVSSAVAWYQQKPGKAPKLLIYSASSLYSGVPSRFSGSRSGTDFTLTISSLQPEDFATYYCQQAYESPYTFGQGTKVEIK
modifications: Antibody mAbA4 VH Sequence; Antibody mAbA4 VL Sequence
B2: mAbA15: 5T4 antibody comprising VH of SEQ ID NO:44 and VL of SEQ ID NO:45 (antibody, V domains shown)
VH: EVQLVESGGGLVQPGGSLRLSCAASGFTFSSYYIHWVRQAPGKGLEWVAYITSTGSYTEYADSVKGRFTISADTSKNTAYLQMNSLRAEDTAVYYCARYDRSTRYSGLDYWGQGTLVTVSS
VL: DIQMTQSPSSLSASVGDRVTITCRASQSVSSAVAWYQQKPGKAPKLLIYSASSLYSGVPSRFSGSRSGTDFTLTISSLQPEDFATYYCQQAYATPVTFGQGTKVEIK
modifications: Antibody mAbA15 VH Sequence; Antibody mAbA15 VL Sequence
B3: mAbA17 (antibody, V domains shown)
VH: EVQLVESGGGLVQPGGSLRLSCAASGFTFSRYWIHWVRQAPGKGLEWVAAIFPYSGSTLYADSVKGRFTISADTSKNTAYLQMNSLRAEDTAVYYCARSPSRSILPSGLDYWGQGTLVTVSS
VL: DIQMTQSPSSLSASVGDRVTITCRASQSVSSAVAWYQQKPGKAPKLLIYSASSLYSGVPSRFSGSRSGTDFTLTISSLQPEDFATYYCQQGDGSPYTFGQGTKVEIKR
notes: also called Antibody mAbA17
B4: mAbA17: 5T4 antibody comprising VH of SEQ ID NO:62 and VL of SEQ ID NO:63 (antibody, V domains shown)
VH: EVQLVESGGGLVQPGGSLRLSCAASGFTFSRYWIHWVRQAPGKGLEWVAAIFPYSGSTLYADSVKGRFTISADTSKNTAYLQMNSLRAEDTAVYYCARSPSRSILPSGLDYWGQGTLVTVSS
VL: DIQMTQSPSSLSASVGDRVTITCRASQSVSSAVAWYQQKPGKAPKLLIYSASSLYSGVPSRFSGSRSGTDFTLTISSLQPEDFATYYCQQGDGSPYTFGQGTKVEIK
modifications: Antibody mAbA17 VH Sequence; Antibody mAbA17 VL Sequence
B5: mAbA4 (antibody, V domains shown)
VH: EVQLVESGGGLVQPGGSLRLSCAASGFTFSRYYIHWVRQAPGKGLEWVAFISPGGSYTYYADSVKGRFTISADTSKNTAYLQMNSLRAEDTAVYYCAREYYSMGVLDYWGQGTLVTVSS
VL: DIQMTQSPSSLSASVGDRVTITCRASQSVSSAVAWYQQKPGKAPKLLIYSASSLYSGVPSRFSGSRSGTDFTLTISSLQPEDFATYYCQQAYESPYTFGQGTKVEIKR
notes: also called Antibody mAbA4
B6: mAbA15 (antibody, V domains shown)
VH: EVQLVESGGGLVQPGGSLRLSCAASGFTFSSYYIHWVRQAPGKGLEWVAYITSTGSYTEYADSVKGRFTISADTSKNTAYLQMNSLRAEDTAVYYCARYDRSTRYSGLDYWGQGTLVTVSS
VL: DIQMTQSPSSLSASVGDRVTITCRASQSVSSAVAWYQQKPGKAPKLLIYSASSLYSGVPSRFSGSRSGTDFTLTISSLQPEDFATYYCQQAYATPVTFGQGTKVEIKR
notes: also called Antibody mAbA15

Assays:
[1] = Size exclusion chromatography (SEC) developability; format: physicochemical; details: 1 mg/mL in Dulbecco's PBS pH 7.4
Experimental: Antibodies that were selected for binding to 5T4, such as those described in Examples 2 and 3, were tested by various methods to assess developability. For example, various chromatographic methods, including size exclusion chromatography (SEC), hydrophobic interaction chromatography (HIC), and standup monolayer adsorption chromatography (SMAC) were employed to assess factors, such as monomer percentage, solubility, and antibody aggregation or precipitation.
Size exclusion chromatography (SEC) analysis was performed using a 7.8 mm ID×30 cm TSKgel G3000SWXL column (Tosoh Bioscience LLC, PN 08541) with a 6 mm×4 cm guard column (PN 08543) on an Agilent 1100 HPLC. Antibodies were normalized to 1 mg/mL concentration in Dulbecco's PBS (pH 7.4, without Ca^2+/Mg^2+) and clarified via centrifugation to pellet particulates while still retaining soluble aggregates. The mobile phase buffer was Dulbecco's PBS (pH 7.4, without Ca^2+/Mg^2+) at 2× concentration (diluted from 10× stock concentration. For each sample, 10 μL was loaded and isocratically eluted at 1.0 mL/minute over 20 minutes at ambient temperature. Absorbance was monitored at 280 nm. Chromatographic peaks were integrated to determine percentage of homogeneity and retention time. The column stationary phase along with choice of mobile phase supports hydrophobic and electrostatic interactions in addition to molecular sizing (secondary interactions much milder compared to SMAC). Data analysis was performed using Agilent ChemStation B.04.03 SP1.

[2] = Protein thermal shift (melting temperature); format: physicochemical
Experimental: Samples for protein thermal shift experiments (melting temperature) were prepared using the APPLIED BIOSYSTEMS™ PROTEIN THERMAL SHIFT™ Dye Kit (ThermoFisher Scientific Cat. No. 4461146). Data were collected using a QUANTSTUDIO™ 3 instrument (ThermoFisher Scientific Cat. No. A28567) with PROTEIN THERMAL SHIFT™ Software v1.4 (ThermoFisher Scientific Cat. No. 466038). Briefly, PROTEIN THERMAL SHIFT™ dye (1000×) was diluted in water to 8× in deionized water. Samples were prepared on ice by combining 5 μL of PROTEIN THERMAL SHIFT™ Buffer, 12.5 μL of protein solution, and 2.5 μL of the diluted PROTEIN THERMAL SHIFT™ Dye (8×) for a total reaction solution volume of 20 μL. The reaction solution was mixed 10 times with a pipette. Tubes were then spun down at 1000 rpm for 1 minute and then incubated on ice until analysis. Samples were loaded onto the instrument plate, which were then loaded into a QUANTSTUDIO™ 3 Real-Time PCR System instrument. Data was collected using the standard Melt Curve experiment with the following conditions: Step 1 temperature: 25° C. for 2 minutes; Step 2 temperature: 99° C. for 2 minutes with continuous fast ramp mode (Step 1: 1.6° C./sec; Step 2: 0.05° C./sec). Raw melting temperature data were deconvoluted within the QUANTSTUDIO™ 3 analysis software.

human 5T4 = molecular target: T1, human 5T4; assay: Octet monovalent binding affinity assay; parameters: polyhistidine (C); Avi tag (C); purchased Acro Biosystems TPGH52E; details: in all three lots of human 5T4
Experimental: Monovalent binding assays were employed to determine the relative affinity of each 5T4 binder obtained by the phage display in Example 1 to human 5T4. Human 5T4 was purchased from Acro Biosystems (Acro Catalog No. TPGH52E) and also produced separately. The monovalent interaction of binders to human 5T4 was monitored using an Octet (Pall ForteBio) instrument. For these assays, 36 nM antibody was immobilized on anti-human Fc (AHC) sensors in 1× kinetic buffer (ForteBio). The sensors were then dipped in wells containing a 3× serial dilution of human 5T4 ranging from 1 μM to 1.37 nM. The association was allowed to reach equilibrium. Sensors were then moved to wells containing only 1× kinetic buffer and allowed to dissociate to equilibrium. Association and dissociation rates were measured and from these, monovalent KDS were calculated using the onboard analysis software (ForteBio).

[3] = molecular target: T2, unconjugated human TPBG/5T4 protein …; assay: ELISA on coated human 5T4 His-Avi (Acro TPG-H52E5); antibody condition: PBS time 48 hr.
Experimental: A. Normal Binding Unconjugated antibodies were tested for their ability to bind to human 5T4 (hu5T4) using ELISA. On Day 1, unconjugated human TPBG/5T4 protein with a c-terminal polyhistidine and Avi (AVITAG™) tag (AcroBiosystems (Newark, DE, USA), Cat. No. TPG-H52E5) was diluted 2 μg/mL in PBS, mixed thoroughly, plated 100 μL per well in a 96-well plate (Nunc MAXISORP®) and incubated overnight at 4° C.
3. Oxidative Stress. Several unconjugated antibodies were tested for their ability to bind to 5T4 using ELISA in an oxidative environment. Solutions of 1 mg/mL to 10 mg/mL of antibody in 20 mM citrate/50 mM NaCl at a pH of 5.5 were prepared and stored at 37° C. for 1 to 2 weeks.

Row | Molecule | developability based on SEC analysis [1] | CH2 Tm [2] | Fab Tm [2] | monovalent binding strength (human 5T4) | EC50 [3] [nM]
1 | B1 | strong developability | 69.18 | 89.94 | strong or moderate binding | –
2 | B2 | strong developability | 70.07 | 86.38 | strong or moderate binding | –
3 | B3 | – | – | – | – | 0.185
4 | B4 | strong developability | 70.06 | 81.92 | strong or moderate binding | –
5 | B5 | – | – | – | – | 0.189
6 | B6 | – | – | – | – | 0.203
